In this assay the target is human PD-1 (hPD-1) expressed on T cells (DO11.10 T cell hybridomas, DO11.10 mouse CD4+ T cells, activated human CD4+ T cells) (human) (UniProt Q15116). In words: cell-based or functional assay.
UniProt Q15116, sequence (Q15116 25-288 limits assumed): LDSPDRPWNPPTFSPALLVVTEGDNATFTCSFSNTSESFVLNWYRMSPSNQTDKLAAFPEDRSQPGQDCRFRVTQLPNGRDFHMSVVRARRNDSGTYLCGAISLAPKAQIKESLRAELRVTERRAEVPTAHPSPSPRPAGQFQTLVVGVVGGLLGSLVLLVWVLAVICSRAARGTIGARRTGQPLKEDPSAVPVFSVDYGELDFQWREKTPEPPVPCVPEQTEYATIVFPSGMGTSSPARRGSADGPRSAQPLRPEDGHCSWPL

Take “anti-human PD-1 antibody (clone: J116, Invitrogen)”: the IC50 of inhibitory activity on IL-2 production was found to be 1 µg/mL.

Values taken from patent US20230183347A1.
